Experimental data taken from the nanobody polyreactivity screen of Harvey et al. (2022).

Experiment: yeast display, Sf9 membrane polyspecificity reagent, FACS + sequencing; frameworks hold sequencing errors
Method in brief: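 Galactose-induced (36–48 hours) yeast carrying a synthetic nanobody display library were exposed to 10% biotinylated, detergent-solubilized Sf9 membrane reagent at 4 °C for 1 hour. FACS followed streptavidin microbead enrichment, using low and high (top ~1%) gates for expression (anti-HA) and reagent binding (streptavidin). Colony PCR, MiSeq 2 × 250 sequencing and CDR-length filtering followed. Labels for polyreactivity reflect the gate of origin.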

Row | Sequence | polyreactivity (PSR sort gate)
1 | QVQLVESGGGLVQAAGSLRLSCAASGFTLTGNAMGWYRQATGKERELVAAISRNGGSTFYADSVKGRFTISRDNAKNTVFLQMNSLKPEDTAVYYCNASRYRHSAYKYDSWGQGTQVTVSS | high polyreactivity
2 | QVQHVESGGGLVQAGGSLRLSCAASGSIFASNAMGWYRQPPGKEREFVAAISSSGTRTYSADSVKGRFTISRDNAKNTVYLQLNSLKQEDTAVYYCATRRGYDSVYYFYTLWSYYWGQGTQVTVSS | low polyreactivity
3 | QVQLVESGGGLVQAGGSLRLSCAASGRNFRSYVMGWYRQAPGKERELVASIRNRGGTTYYADSVKGRFTISRDNAKNTVYLQMNSLKPEDTAVYYCNAAPARTVYAQSSYVLYDYWGQGTQVTVSS | low polyreactivity
4 | QVQLEESGGGLVQAGGSLRISCAASGFTFSHNAMGWYRQAPGKERELVAAISKGGSSTYYADSVKGRFTISRDNAKNTVYLQMNSLKPEDTAVYYCARPSPHKGYDYWGQGTQVTVSS | high polyreactivity
5 | QVQLVESGGGLVQAGGSLRLSCAASGSTFQGNAMGWYSQAPGKERELVAAISRSGGSTYADSVKGRFTISRDNAKNTVYLQMNSLKPEDTAVYYCAAYSGVGYLWFDYWGQGTQVTVSS | low polyreactivity
6 | QVQLVESGGGLVQAGGSLRFSCAASGSIFITYAMGWSRQAPGKERELVAAIRDSGDRTYYADSVKGRFTISRDNAKNTVYLQMNSLKPEDTAVYYCNARWQEPLKYDYWGQGTQVTVSS | low polyreactivity
7 | QVQLVESGGGLVQAGGSLRLSCAASGSIFAYYVMGWYRKAPGKERELVAAITSVGSTNYADSVKGRFTISRDNAKNTVYLQMNCLKPEDTAVYSCAAVQYQASYYYWGQGTQVTLSS | low polyreactivity
8 | QVQLVESGGGLVQAGGSLRLSCAASGRTFRVYAMGWYRQAPGKEREFVAAISYSGGRTNYADSVKGRFTISRDNSKNTVYLQMNSLKPEDTAVYYCAARYSWAEGDYWGQGTQVTVSS | low polyreactivity
9 | QVQLVESGGRLVQAGGSLRLSCAASGRIFATYAMGWYRQAPGKEWQLVAGITSGGRTNYADSVKGRFTISRDNAKNTVYLQMNSLKPEDTAVYYCDKRVWPRDQYGKRNPRMDYWGQGTQETVSS | high polyreactivity
10 | QVQLVESGGGLVQAGGSLRLSCAASGYIFATYAMGWYRQAPGKERELVAAISWSGGRTYYADSVKGRFTISRDNAKNTVYLQMNGLKPEVTAVYYCAAQSYSRMDYWGQGTQVTVSS | high polyreactivity
11 | QVQLVESGGGLVQAGGSLRLSCAASGFIFPRYVMGWYRQAPGKERELVAAITQGGGSTYYADSVKGRFTISRDNAKNTVYLQMNSLKPEDTAVYYCAAEVWRSYGYWGQGTQVTVSS | low polyreactivity
12 | QVQLVESGGGLVQAGGSLRLSCSASGSISYYNAMAWYRQAPGKERELVASITRRGGTTNYAESVKGRFSISRDNAKHTVYLQMNSLKPEDTAVYNCNAEYPYWTPDYNYRFDYWGQGTQVTVSS | high polyreactivity
13 | QVQLVESGGGLVQAGGSLRLSCAASGFTFDYNAMGWSRQAPGKERELVAVISSSGSRTYYADSVKGRFTISRDNAKNTVYLQMNSLKPEDTAVYYCAAARIGTRDYWGQGTQVTVSS | high polyreactivity
14 | QVQLVESGGGLVQAGGSLRLSCAASGSIFYGNAMGWDRQAPGNARELVAAISWNGGSTYYADSVKGRFTISRDNAKNTVYLQMNSLKPEDTAVYYSNADYYYEVDSWGQGTQVTVSS | low polyreactivity
15 | QVQLVESGGGLVQAGGSLRLSCAASGFIFHRYAMGWYRQAPGKERELVASITRSGGSTYYADSVKGRFTISRDNAKNTVYLQMNSLKPEDTAVYYCAAQLPSYYKYPRHDYWGQGTQVTVSS | high polyreactivity
16 | QVQLVESGGGLVQAGGSLRLSCAASGSIFRYYAMGWYRQAPGKEREFVAAISRSGGSTYYADSVKGRFTISRDNAKNTVYLQMNSLKPEDTAVYYCAASYYRYFVSLGYDYWGQGTQVTVSS | high polyreactivity
17 | QVQLEESGGGLVQAGGSLRLSCAASGGIFDYNSMGWYRQAPGKERELVAAISSGASTTYADSVKGRFTISRDNAKNTVYLQMNSLKPEATAVYYCAAYWKSRYLSGLEYYSWGQGTQVTVSS | low polyreactivity
18 | QVQLVESGSGLVQAGGSLRLSCAHSGFTVSYYVMGWYRQAPGKERELVAAISWSGGSTYYADSVKGRFTISLDNAKNTVYLQMNSLKPEDTAFYYCNADDWRDDYEYWGQGTQVTVSS | high polyreactivity
19 | QVQLVESCGGLVQAGGSLRLSCAASRLIFGYYAMGWYRQAPVKERELVASISSGGRTYYADSVKGRFTISRDNAKNTVNLQMNSLKPEDTAVYYCNAVKGWFVYEYDYWGQGTQVTVSS | low polyreactivity
20 | QVQLVESGGGLVHAGGSLRLSCASSGSTFAQYALGWYRPAPGKDREFVAAITRGGGRTYYADSVNGRFTISRDNAKYSVYLQMNSLKPEVTAVYYCNAVYRYYPFDYWGQGTQVTVSS | high polyreactivity
21 | QVQLVESGGGLVQAGGSLRLSCAASGRTFGYYAMGWYRQAPGKERELVAAITWIGGSTYADSVKGRFTISRDNAKNTVYLQMNSLKPEDTAVYYCAADPSVWSDYYYWGQGTQVTVSS | high polyreactivity
22 | QVQLVESGGGLVQAGGSLRLSCAASGITFGTYAMGWYRQATGKERELVDAITRGGRTYYADSVKGRFTISRDNDKNTVYLQMYSLKPEDTAVYYCNAYVLRRYGWRSGDDYDYWGQGTQVNVSS | high polyreactivity

Row | Sequence | polyreactivity (PSR sort gate)
23 | QVQLVESGGGLVQAGGSLRLICAASGSIFLGYAMGWYRPAPGKERELVAAISTSGGGTYYADSVKGRFTISRDNAKNTVYLQMNSLKPEDTAVYYCNAVSHYKYDWGQGTQVTVSS | low polyreactivity
24 | QVQLVESGGGLVQAGGSLRISCAPSGIIFGYNVMGRYRQAPGKERELVAAISGSGASTYYADSVKGRFTISRDNAKNTVYLQMNSLKPEDTAVYYCARYRGYWGRYYGVDYGYWGQGTQVTVSS | high polyreactivity
25 | QVQLVESGGGLVQAGGSLRLSCAASGSIFGAYAMGWYRQAPGKERELVAVIRWGGGSTYADSVKGRFTISRDNAKNTVYLQMNRLKPEDTAVYYCNRDKSWADLYSHAYDYWGQGTQVTVSS | low polyreactivity
26 | QVQLVESGGGLVQAGGSLRLSCAASGFNLYPNAMGWYRQAPGKERELGAAITESDGITYYADSVKGRFTISRDNAKYTVYLQMNSLKPEDTAVYYCNTGFSYTYDYWGQGTQVTVSS | low polyreactivity
27 | QVQLVESVGGLVQAGGSLRLSCAASGITFWKYTMGWYRQAPGKERELVAAITGRGGSTYYADSVKGRFTISRDNAKNTVYLQMNSLKPEDTAVYYCAADPYHLQTRFSGLAEFYYWGQGTQVTVSS | low polyreactivity
28 | QVQLVESGGGLVQAGGSLRLSCAASGRIIVDNAMGWYRQAPGKERELVAAITNGGSTSYADSVKGRFTISRDNAKNTVYLQMNSLKPEDTAVYYCNADEDLRGYDYWGQGTQVTVSS | low polyreactivity
29 | QVQLVESGGGLVQAGGSLRLSCADSGSTFPYYTMGWYRQAPGKEREFVAAISRSTGRTSYADSVKGRFTISRDNAKNTVYLQMNSVKPEDSAVYDCAVRWYYYRDDTIYVLGRYDYWGQGTQVSVSS | high polyreactivity
30 | QVQLVDSGGGIVQAGGSLRLSCPASGSTFGSYALGWSRQKPGKEREWVAAITSAGSTNYADSVKGRFTISRDNAKNTVYLQMNSLKPEDTAVYYCNDVRYYSYQYDPEVTHRYGYWGQGSQVTVSS | high polyreactivity
31 | QVQLVESGGGLVQAGGSLRLSCAASGRILRDYDMGWYRQATGKERELVAAINWSDGSTYYADSVKGRFTISRDNAKNTVYLQMNSLKPEDTAVYYCAASRWRPLERGTTWLNDYWGQGTQVTVSS | low polyreactivity
32 | QVQLVDSGGGLVQAGGRLRLSCAASGSTFGHNAMGWYRQAPGKERQLLAAISRSGGITYYADSVKGRFTISRDNAKNTVYLQLNSLKPEDTAVYYCAADAWFSLRYAPRSYAYGYWGQGTQVTVSS | low polyreactivity
33 | QVHLVESGGGLVQAGGSLRLSFAASGLIFSAYAMAWYRQAPGKERELVAAISSSGGRTYYADSVKGRFTISRDNAKNTVYLQMNSLKPEDTAVYYGNAASKNSGRYAYQNYDYWGQGTQVTVSS | high polyreactivity
34 | QVQLVESGGGLVQAGGSLRLSCAASGLTFSFNAMGWYRQAPGKEREFVAAISWSGGSTYYADSVKGRFTISRDNAKITVYLQMNSLKPEDTAVYYCAAESRITRYRHTRYYYWGQGTQVTVSS | high polyreactivity
35 | QVQLLESGGGLVQAGGSLRLSCAASGRIFVKYAMGWYRQAPGKERELVAAISKSGGSTYYADSVKGRFTISRDNAKNTVYLQMNSLKPEDTAVYYCAPRSRDQYSGSYRLDYWGQGTQVTVSS | low polyreactivity
36 | QVQLVESGGGLVQAGGSLRLSCAASGRIFDDNAMGWYRQAPGKERELVADINNATSTNYADSVKGRFTISRDNAKNTVYLQMNSLKPEDTAVYYCAADDYIYYRILGDSFVYKAYGYWGQGTQVTVSS | low polyreactivity
37 | QVQLVESGGGLVQAGRSIRLSCAASGSTFAKYAMGWYRQAPAKERELVAAISSSGSRTYYADSVKGRFTISRDYAKNTVYLQMNILKTEDTAVYYCAALIVKPGGRVYYGGQGTQVTVSS | high polyreactivity
38 | QVQLVESGGRLVQAGGSLRLSCAASGRIFTWYAMGWYRQAPGKERELVAAISWTGGTTYYADSVKGRFTISRVNAKNTVYLQMNSMKPEDTEVYYCNKVVGFRSNFGGYGYCGQGTQVTVSS | high polyreactivity
39 | QVQLVESGGGLVQAGGSLRLSCAASGFILKFYAMGWYRQAPGKERELVAAISRRGGSTYYADSVKGRFTISRDNAKNTVYLQMNSLKPEDTAVYHCAKDGTTSRVSDSSDYWGQGTQVTVSS | high polyreactivity
40 | QVQLVESGGGLVQAGGSLRLSCAASGFTFRHNGMGWYIQAPGKERELVATITWSGGRTSYADSVKGRFTISRDNAKNTVYLQMNSLKPEDTAVYYCAARFFSYSQYAYNYWGQGTQVTVSS | high polyreactivity
41 | QVQLVESGGGLVQAGGSLRLSCAASGSIFLIYAMGSYRQAPGKERELVATINRGDNTYYADSVKGRFTISRDNAKNTVYLQMNSLKPEDTAVYYCAADVPWGWWDSDFSDNYYWGQGTQVTVSS | low polyreactivity
42 | QVQLVESGGGLVQAGGSLRLSCADSGSIFTSNGMGWYRHAPGKERELVAAITSGTSTYYADSVKGRFTISRDNAKNTVYLQMNSLKPEDTAVYYCAAGRWWVYRYARYYYWGQGTQVTVSS | high polyreactivity
43 | QVQLVESGGGLVQAGGSLRLSCSASGSTFSRYAMGWYRQAPGKEREFVAAISQRGGSTYYADSVKGRFTISRDNAKNTVYLQMNSLKPEDTAVYYCAARRVPQLDDYWGQGTQVTVSS | high polyreactivity
